Test results as given in patent US9988428B2, “Pegylated bioactive peptides and uses thereof” (GRIFFON PHARMACEUTICALS INC., priority 2016, dated 2018).
Non-standard residues stand in square brackets, D forms with d. No end group written: not given here. hArg = N=C(N)NCCCC[C@H](N)C(=O)O; Orn = NCCC[C@H](N)C(=O)O

Assays:
[1] = target: T1, human GHRH receptor (Homo sapiens, UniProt Q02643); assay: Hit Hunter (DiscoveRx) cAMP agonist assay in cells expressing GHRH receptor; assay type: cell-based; details: for In vitro potency / biological activity (in words): effect of Cys-PEG substitution compared with native peptide
T1 sequence (Q02643 23-423): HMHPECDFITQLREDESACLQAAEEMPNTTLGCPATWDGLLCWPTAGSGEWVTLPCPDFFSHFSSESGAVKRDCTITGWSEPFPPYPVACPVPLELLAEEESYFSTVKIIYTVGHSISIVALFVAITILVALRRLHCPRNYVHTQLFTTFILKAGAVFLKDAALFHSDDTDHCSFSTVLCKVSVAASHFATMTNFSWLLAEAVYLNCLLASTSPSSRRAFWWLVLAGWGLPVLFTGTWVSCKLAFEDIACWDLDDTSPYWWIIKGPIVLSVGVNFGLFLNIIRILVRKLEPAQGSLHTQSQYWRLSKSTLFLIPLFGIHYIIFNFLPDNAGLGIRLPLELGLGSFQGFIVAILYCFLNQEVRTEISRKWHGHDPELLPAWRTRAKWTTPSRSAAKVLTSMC
Experimental: For agonist determination, cells were incubated with sample to induce response. Media was aspirated from cells and replaced with 15 μL 2:1 HBSS/10 mM Hepes: cAMP XS+Ab reagent. […] Vehicle concentration was 1%. After appropriate compound incubation, assay signal was generated through incubation with 20 μL cAMP XS+ED/CL lysis cocktail for one hour followed by incubation with 20 μL cAMP XS+EA reagent for three hours at room temperature. Microplates were read following signal generation with a PerkinElmer Envision™ instrument for chemiluminescent signal detection. Compound activity was analyzed using CBIS data analysis suite (ChemInnovation, CA).

[2] = tested on: Growth Hormone secretion; assay: GH release after subcutaneous injection of GHRH analogs in Sprague-Dawley rats (plasma GH ELISA); assay type: in vivo; details: female rats; for Growth hormone AUC (0-90 min): single subcutaneous dose 0.04 mg/kg, plasma GH, FIG. 1
Excerpt: Sprague-Dawley rats (female, weighing from 250 to 300 g) were obtained from Charles River Inc. Animals were used according to a protocol of the Animal Care Committee along with the principles of the Guide for the Care and Use of Experimental Animals of the Canadian Council on Animal Care. The animals were maintained on standard laboratory chow under a 12:12 light:dark cycle. They were kept in groups of 4 rats per cage. The animals were anesthetized with isoflurane 2.5%. A mid-section opening was made in the neck to expose the carotid artery. The carotid artery was canulated with polypropylene tubing (PE-50) to allow blood withdrawal. After surgical preparation, rats received a subcutaneous injection of GHRH analog (10-100 μg/kg) dissolved in 20 mM AcONa+5% mannitol at pH 5). Blood samples (400 μL/time point) were collected from 2-4 animals per group. […] Blood was collected into microtainer tubes containing K3EDTA, mixed and immediately centrifuged at 13,000 RPM in a desktop centrifuge for 2 minutes. The plasma was collected and placed into a screw cap Eppendorf™ tube and quickly frozen in liquid nitrogen. The samples were then kept at −80° C. until assayed. Determination of GH levels was performed as described below.
Rat and mouse plasma samples were vortexed carefully and centrifuged at 9,000 RPM for 2 min at 4° C. […] The remainder of the procedure was performed according to the manufacturer's instructions, and the data obtained were analyzed using GraphPad Prism™ software. […] Growth hormone levels were determined in timed-aliquots of blood and are depicted in FIG. 1. […]
The N-terminal part of the GHRH peptide is known to be buried in the extracellular loops and transmembrane domains of the GHRH receptor, and thus almost all of the amino acids in the N-terminal domain participate in high affinity binding of the GHRH peptide to the receptor. […] Briefly, peptides (0.04 mg/kg) were subcutaneously injected in female rats and growth hormone levels were determined in timed aliquots of blood drawn from the animals.

Compound	In vitro potency / biological activity (in words) [1]	other results
CC[C@H](C)[C@H](NC(=O)[C@H](C)NC(=O)[C@H](CC(=O)O)NC(=O)[C@H](C)NC(=O)[C@@H](N)Cc1ccc(O)cc1)C(=O)N[C@@H](Cc1ccccc1)C(=O)N[C@H](C(=O)N[C@@H](CC(N)=O)C(=O)N[C@@H](CO)C(=O)N[C@@H](Cc1ccc(O)cc1)C(=O)N[C@@H](CCCNC(=N)N)C(=O)N[C@@H](CCCCN)C(=O)N[C@H](C(=O)N[C@@H](CC(C)C)C(=O)NCC(=O)N[C@@H](CCC(N)=O)C(=O)N[C@@H](CC(C)C)C(=O)N[C@@H](CO)C(=O)N[C@@H](C)C(=O)N[C@@H](CCCNC(=N)N)C(=O)N[C@@H](CCCCN)C(=O)N[C@@H](CC(C)C)C(=O)N[C@@H](CC(C)C)C(=O)N[C@@H](CCC(N)=O)C(=O)N[C@@H](CC(=O)O)C(=O)N[C@H](C(=O)N[C@@H](CCSC)C(=O)N[C@@H](CO)C(=O)N[C@@H](CCCNC(=N)N)C(N)=O)[C@@H](C)CC)C(C)C)[C@@H](C)O [GHRH1-29, reference compound]	–	Max. response (%) ([1]; Table 3, independent experiment): 112.97%
YaDAIFTAC(Peg-2K)YROVLAQLSAROALQDILS-(Har)-NH2 (Y[dA]DAIFTAC(PEG 2 kDa)YR[Orn]VLAQLSAR[Orn]ALQDILS[hArg]-NH2) [Analog 10, GHRH analog, about 2 kDa PEG on Cys9, C-terminal Har-NH2]	–	Fold more potent than the native peptide ([1]; Table 3 experiment, versus GHRH1-29): ~14 fold
YaDAIFTAC(Peg-2K)YROVLAQLSAROALQDILSKN-NH2 (Y[dA]DAIFTAC(PEG 2 kDa)YR[Orn]VLAQLSAR[Orn]ALQDILSKN-NH2) [Analog 6, GHRH analog, Cys conjugated to about 2 kDa PEG at position 9]	–	Growth hormone AUC (0-90 min) [2]: 29075 ng/ml/90 min
YaDAIFTAC(Peg-5K)YROVLAQLSAROALQDILS(Har)-NH2 (Y[dA]DAIFTACYR[Orn]VLAQLSAR[Orn]ALQDILS[hArg]-NH2; not fully specified (residue 9); printed as YaDAIFTAC(Peg-5K)YROVLAQLSAROALQDILS(Har)-NH2) [Analog 15, GHRH analog, 5K PEG on Cys9, C-terminal Har-NH2]	without loss of in vitro biological activity	–
YaDAIFTAC(Peg-40K)YROVLAQLSAROALQDILS(Har)-NH2 (Y[dA]DAIFTAC(PEG 40 kDa)YR[Orn]VLAQLSAR[Orn]ALQDILS[hArg]-NH2) [Analog 16, GHRH analog, about 40 kDa PEG on Cys9, C-terminal Har-NH2]	without loss of in vitro biological activity	–
YaDAIFTASYROVLAQLSAROALQDILC(Peg-2K)KN-NH2 (Y[dA]DAIFTASYR[Orn]VLAQLSAR[Orn]ALQDILC(PEG 2 kDa)KN-NH2) [Analog 1, GHRH analog, Cys conjugated to about 2 kDa PEG at position 28]	–	Stimulation of GH secretion (in words) ([2]; subcutaneous 0.04 mg/kg, FIG. 1 / FIG. 2): potently stimulated GH secretion

Second part, led by results:

In vitro potency / biological activity (in words) [1]	Compound	other results
reduced potency	YaDAIFTASYROVLAC(Peg-2K)LSAROALQDILSKN-NH2 (Y[dA]DAIFTASYR[Orn]VLAC(PEG 2 kDa)LSAR[Orn]ALQDILSKN-NH2) [Analog 9, GHRH analog, Cys conjugated to about 2 kDa PEG at position 16]	–
reduced potency	YaDAIFTASYROVLAQLSAROALQDC(Peg-2K)LSKN-NH2 (Y[dA]DAIFTASYR[Orn]VLAQLSAR[Orn]ALQDC(PEG 2 kDa)LSKN-NH2) [Analog 8, GHRH analog, Cys conjugated to about 2 kDa PEG at position 26]	–
reduced potency	YaDAIFTASYROVLAQLSC(Peg-2K)ROALQDILSKN-NH2 (Y[dA]DAIFTASYR[Orn]VLAQLSC(PEG 2 kDa)R[Orn]ALQDILSKN-NH2) [Analog 4, GHRH analog, Cys conjugated to about 2 kDa PEG at position 19]	–
reduced potency	YaDAIFTASYROVLC(Peg-2K)QLSAROALQDILSKN-NH2 (Y[dA]DAIFTASYR[Orn]VLC(PEG 2 kDa)QLSAR[Orn]ALQDILSKN-NH2) [Analog 5, GHRH analog, Cys conjugated to about 2 kDa PEG at position 15]	–
reduced potency	YaDAIFTC(Peg-2K)SYROVLAQLSAROALQDILSKN-NH2 (Y[dA]DAIFTC(PEG 2 kDa)SYR[Orn]VLAQLSAR[Orn]ALQDILSKN-NH2) [Analog 7, GHRH analog, Cys conjugated to about 2 kDa PEG at position 8]	Growth hormone AUC (0-90 min) [2]: 15657 ng/ml/90 min
